In patent publication US20230312739A1 (BIOTHEUS, published 2023):

T1: human CD73 on the cell surface (tumor cells endogenously expressing human CD73; CHOS-human CD73) (human, UniProt P21589 27-549)
T1 sequence: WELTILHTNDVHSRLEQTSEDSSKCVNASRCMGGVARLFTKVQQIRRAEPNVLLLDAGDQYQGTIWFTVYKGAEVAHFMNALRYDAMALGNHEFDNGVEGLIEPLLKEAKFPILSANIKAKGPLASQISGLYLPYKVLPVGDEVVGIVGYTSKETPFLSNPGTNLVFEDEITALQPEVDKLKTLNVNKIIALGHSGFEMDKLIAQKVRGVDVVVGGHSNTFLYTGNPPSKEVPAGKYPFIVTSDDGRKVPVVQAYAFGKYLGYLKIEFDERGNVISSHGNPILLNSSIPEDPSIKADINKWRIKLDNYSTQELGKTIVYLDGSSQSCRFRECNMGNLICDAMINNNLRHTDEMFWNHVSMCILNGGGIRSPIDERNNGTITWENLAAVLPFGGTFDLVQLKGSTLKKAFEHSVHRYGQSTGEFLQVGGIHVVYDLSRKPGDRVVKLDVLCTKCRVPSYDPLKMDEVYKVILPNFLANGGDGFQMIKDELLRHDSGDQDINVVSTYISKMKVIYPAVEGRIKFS

T2: recombinant human CD73 protein (Baiying Bio) (human, UniProt P21589 27-549)
T2 construct: Bought protein; also called soluble recombinant CD73; soluble human CD73 protein
T2 sequence: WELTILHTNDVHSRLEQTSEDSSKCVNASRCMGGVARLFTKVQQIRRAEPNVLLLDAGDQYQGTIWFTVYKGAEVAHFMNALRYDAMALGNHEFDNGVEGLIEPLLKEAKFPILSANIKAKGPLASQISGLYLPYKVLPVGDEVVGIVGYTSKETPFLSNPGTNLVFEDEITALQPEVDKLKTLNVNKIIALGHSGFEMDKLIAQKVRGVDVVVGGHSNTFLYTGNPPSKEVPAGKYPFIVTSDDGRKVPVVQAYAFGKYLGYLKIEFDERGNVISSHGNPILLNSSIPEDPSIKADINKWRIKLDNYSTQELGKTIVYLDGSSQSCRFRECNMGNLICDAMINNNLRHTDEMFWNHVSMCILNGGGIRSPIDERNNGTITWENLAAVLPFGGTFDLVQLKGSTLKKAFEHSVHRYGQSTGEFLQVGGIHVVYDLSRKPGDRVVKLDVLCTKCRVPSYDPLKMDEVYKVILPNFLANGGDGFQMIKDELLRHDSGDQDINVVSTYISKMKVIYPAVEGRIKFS


Legend:
[1] = molecular target: CD73 on cynomolgus macaques CD3+CD8+ T cells (cynomolgus macaques); assay: flow cytometry on cynomolgus macaque PBMC, CD3+CD8+ T cells, donor 1132F
[2] = molecular target: CD73 on cynomolgus macaques CD3+CD8+ T cells (cynomolgus macaques); assay: flow cytometry on cynomolgus macaque PBMC, CD3+CD8+ T cells, donor 1300M
[3] = molecular target: T1, human CD73 on the cell surface (tumor …); assay: cell-based or functional assay
[4] = molecular target: T1, human CD73 on the cell surface (tumor …); assay: flow cytometry, MFI, A375 cells expressing human CD73
Procedure: (§1) 500,000 CD73-expressing cells (see Example 2) were placed in 100 μL of FACS buffer (PBS+2% FBS)/well for later use in a round-bottom low adsorption 96-well plate. The antibody sample was subjected to serial 3-fold dilutions at 12 points by diluting ½ of the total volume (100 μL) in 200 μL of FACS buffer. 100 μL of the diluted antibody was added to each well of the cell plate, 100 μL of FACS buffer was added to the corresponding negative control well, and incubation was performed at 4° C. for 1 hour. […] After staining, the supernatant was removed by centrifugation, washing was performed twice with FACS buffer, and 100 μL of FACS buffer was added to each well to resuspend the cells, and then reading was performed on flow cytometry. The cells in the plate were measured using a flow cytometer (BD, model ACCURI C6 PLUS). During the measurement, the cells were first gated according to FCS and SSC, and then analyzed by the green fluorescence channel (FITC) corresponding to the secondary antibody and SSC. GraphPad was used for data analysis, wherein the abscissa indicated the logarithm of antibody concentration, the ordinate indicated mean fluorescence intensity, and the EC50 value of the anti-CD73 antibody was obtained by curve fitting.

[5] = molecular target: T1, human CD73 on the cell surface (tumor …); assay: flow cytometry, MFI, MDA-MB-231 cells expressing human CD73
Procedure: as §1

[6] = molecular target: T2, recombinant human CD73 protein (Baiying …); assay: SPR, Biacore T200 at 25 C, antibody captured on Protein A chip, CD73 protein as analyte, 1:1 model
Procedure: The antibody was diluted with running buffer 1*HBS-EP+ to 1 μg/ml, and was captured onto the chip surface (Protein A chip, GE, Cat #29127556) at a flow rate of 10 μl/min for 30 s. Then, a series of concentrations of CD73 protein (Baiying Bio, recombinant human CD73 protein) were injected into antibody channel at a flow rate of 30 μl/min, for association of 180 s, followed by dissociation for 900 s. 10 mM pH 1.5 Gly-HCl was used for regeneration. The sensorgram data was fitted using a 1:1 dynamic binding model.

[7] = molecular target: T2, recombinant human CD73 protein (Baiying …); assay: ELISA, 1 ug/ml recombinant human CD73 coated, HRP-coupled anti-IgG Fc secondary antibody, OD450
Procedure: 1 μg/ml recombinant human CD73 protein (Baiying Bio, recombinant human CD73 protein) was coated on an ELISA plate in PBS for overnight at 4° C. The plate was washed 3 times with washing buffer (PBS, 0.05% Tween-20), and non-specific sites were blocked by adding 200 μl/well PBS+2% BSA. 100 μL of the anti-CD73 antibody in a dose range of gradient dilution was added to the ELISA plate coated with the antigen, and incubated at 37° C. for 1 h. The plate was washed 3 times in washing buffer, and HRP-coupled goat anti-human or goat anti-mouse IgG Fc fragment secondary antibody was added for 1 h at room temperature to detect the captured anti-CD73 antibody. […] The enzymatic reaction was stopped by adding 1M sulfuric acid solution, and the light absorption was measured at 450 nm. The graph was plotted with the absorbance value on the ordinate and the log value of antibody concentration on the abscissa, and the EC50 was calculated using GraphPad Prism software.

MFI FC (fold change of mean fluorescence intensity) [1] [fold] | MFI FC (fold change of mean fluorescence intensity) [2] [fold] | IC50 of antibody inhibiting enzymatic activity of CD73 on surface of A375 cells (AMP/ATP CellTiter-Glo) [3] [µg/mL] | IC50 of antibody inhibiting enzymatic activity of CD73 on surface of MDA-MB-231 cells (AMP/ATP CellTiter-Glo) [3] [µg/mL] | EC50 [4] [µg/mL] | EC50 [5] [µg/mL] | Kd [6] [nM] | koff [6] [s⁻¹] | kon [6] [M⁻¹ s⁻¹] | EC50 (read off the curve) [7] [µg/mL] | Molecule
1.2 | 1 | – | – | – | – | – | – | – | – | Isotype control (IgG1-TM) (antibody)
– | – | 0.26 | 1 | 0.6 | 0.99 | 0.21 | 6.24e-05 | 297000 | ~0.008 | humanized antibody 7002-01 (antibody, human IgG1, kappa, V domains shown) VH: QVQLQESGPGLVKPSQTLSLTCTVSGYSITSGYDWHWIRQHPGKGLEWMGYISYSGYTDYNPSLKSRITISHDTSKNQFSLKLSSVTAADTAVYYCTRGDHSYAMDYWGQGTLVTVSS VL: AIQMTQSHSSLSASVGDRVTITCKASQAVGTAVAWYQQKPGKSPKLLIYWASSRHTGVPSRFSGSRSGTDFTLTISSLQPEDFATYFCQQYSSYPLTFGGGTKVEIKR
